Measured values taken from patent US20230272055A1 (Incyte, published 2023).

T1: human mutCALR on BaF3 cells stably expressing human MPL and human mutCALR (MPL-mutCALR cells) (human)
T1 construct: also called mutant calreticulin
T1 chain: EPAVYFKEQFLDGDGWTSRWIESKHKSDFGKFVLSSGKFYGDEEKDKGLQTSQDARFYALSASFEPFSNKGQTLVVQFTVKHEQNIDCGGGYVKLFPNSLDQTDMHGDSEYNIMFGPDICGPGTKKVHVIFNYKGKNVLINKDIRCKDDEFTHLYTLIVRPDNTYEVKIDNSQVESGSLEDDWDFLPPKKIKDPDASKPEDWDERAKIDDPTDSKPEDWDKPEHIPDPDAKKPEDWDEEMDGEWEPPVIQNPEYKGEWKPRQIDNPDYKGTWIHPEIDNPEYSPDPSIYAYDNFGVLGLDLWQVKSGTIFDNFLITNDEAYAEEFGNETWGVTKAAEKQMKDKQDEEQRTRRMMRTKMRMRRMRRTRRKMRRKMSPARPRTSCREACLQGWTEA

T2: human Type 1 mutCALR on Ba/F3 cells expressing MPL and Type 1 mutCALR (human)
T2 chain: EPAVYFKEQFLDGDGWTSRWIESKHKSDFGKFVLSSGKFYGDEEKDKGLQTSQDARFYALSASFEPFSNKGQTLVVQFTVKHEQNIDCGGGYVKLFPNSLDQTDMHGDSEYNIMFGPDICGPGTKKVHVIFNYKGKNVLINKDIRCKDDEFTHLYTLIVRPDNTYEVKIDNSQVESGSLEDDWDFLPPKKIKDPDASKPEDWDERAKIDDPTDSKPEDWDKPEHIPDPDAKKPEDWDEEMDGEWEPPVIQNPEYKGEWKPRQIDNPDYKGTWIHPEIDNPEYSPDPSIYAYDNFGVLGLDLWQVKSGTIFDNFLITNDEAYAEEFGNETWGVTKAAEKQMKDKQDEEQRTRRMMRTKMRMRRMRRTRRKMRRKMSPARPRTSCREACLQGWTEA

B1: anti-mutCALR antibody clone 4 (antibody, human IgG1, lambda, V domains shown)
VH: EVQLVQSGAEVKKPGASVKVSCKVSGYTLTELSMQWVRQAPGKGLEWMGGFDPDDGETMYAEKFQGRLTVTEDTSTDTVYMELRSLTSEDTALYFCATSPGYDFFDYWGQGTLVTVSS
VL: SYVLTQPPSVSVAPGQTARITCGGNNIGSKSVHWYQQKPGQAPVLVVYDDSDRPSGIPERFSGSNSGNTATLTINRVEAGDEADYYCQVWDSSNDLLIFGGGTKLTVLG
B2: anti-mutCALR antibody clone 1 (antibody, human IgG1, lambda, V domains shown)
VH: EVQLVQSGAEVKKPGASVKVSCKVSGYTLTELSMQWVRQAPGKGLEWMGGFDPDDGETMYAEKFQGRLTVTEDTSTDTVYMELRSLTSEDTALYFCATSPGYDFFDYWGQGTLVTVSS
VL: SYVLTQPPSVSVAPGKTARITCGGNYIGSKSVHWYQQKPGQAPVLVVYDDGDRPSGIPARFSGSNSGNTATLTISRVEAGDEADYYCQVWDSISDHVVFGGGTKLTVLG
notes: human IgG1; group 1
B3: anti-mutCALR antibody clone 8 (antibody, human IgG1, lambda, V domains shown)
VH: QVQLVQSGAEVKKPGSSVKVSCKVSGYTLTELSMQWVRQAPGKGLEWMGGFDPDDGETMYAEKFQGRLTVTEDTSTDTVYMELRSLTSEDTALYFCATSPGYDFFDYWGQGTLVTVSS
VL: SYELTQPPSVSVAPGQTARITCGGNNIGSKSVHWYQQKPGQAPVLVVYDDSDRPSGIPERFSGSNSGRTATLTISRVEAGDEADYHCQVWDSSSDHLVFGGGTKLTVLG
notes: human IgG1; group 1
B4: anti-mutCALR antibody clone 3 (antibody, human IgG1, lambda, V domains shown)
VH: EVQLVQSGAEVKKPGASVKVSCKVSGYTLTELSMQWVRQAPGKGLEWMGGFDPDDGETMYAERFQGRLTVTEDTSTDTVYMELRSLTSEDTALYFCATSPGYDFFDYWGQGTLVTVSS
VL: SYVLTQPPSVSVAPGQTARITCGGNNIGSKSVHWYQQKPGQAPVLVVYDDSDRPSGIPERFSGSNSGNTATLTINRVEAGDEADYYCQVWDSSNDLLIFGGGTKLTVLG
notes: human IgG1; group 1
B5: anti-mutCALR antibody clone 2 (antibody, human IgG1, lambda, V domains shown)
VH: EVQLVQSGAEVKKPGASVKVSCKVSGYTLTELSMQWVRQAPGKGLEWMGGFDPDDGETMYAEKFQGRLTVTEDTSTDTVYMELRSLTSEDTALYFCATSPGYDFFDYWGQGTLVTVSS
VL: SYELTQPPSVSVAPGKTARITCGGDNIGSKSVHWYQQKPGQAPVLVVYDDSDRPSGIPERFSGSNSGNTATLTISRVEAGDEADYYCQVWDSSIDHLIFGGGTKVTVLG
notes: human IgG1; group 1
B6: anti-mutCALR antibody clone 9 (antibody, human IgG1, lambda, V domains shown)
VH: EVQLVQSGAEVKKPGASVKVSCKVSGYTLTELSMQWVRQAPGKGLEWMGGFDPDDGETMYAEKFQGRLTVTEDTSTDTVYMELRSLTSEDTALYFCATSPGYDFFDYWGQGTLVTVSS
VL: SYVLTQPPSVSVAPGQTARIPCGGNNIGSKSVHWYQQKPGQAPVLVVYDDRDRPSGIPERFSGSNSGNTATLTINRVEAGDEADYYCQVWDSSNDLLIFGGGTKLTVLG
notes: human IgG1; group 1
B7: anti-mutCALR antibody clone 10 (antibody, human IgG1, lambda, V domains shown)
VH: EVQLVQSGAEVKKPGASVKVSCKVSGYTLTELSMQWVRQAPGKGLEWMGGFDPDDGETMYAEKFQGRLTVTEDTSTDTVYMELRSLTSEDTALYFCATSPGYDFFDYWGQGTLVTVSS
VL: SYELTQPPSVSVAPGQTARIPCGGNNIGSEGVHWYQQKPGQAPVLVVYDDSDRPSGIPERFSGSNSGNTATLTISRVEAGDEADYYCQVWDSSNDLLIFGGGTKLTVLG
notes: human IgG1; group 1
B8: anti-mutCALR antibody clone 5 (antibody, human IgG1, lambda, V domains shown)
VH: EVQLVQSGAEVKKPGASVKVSCKVSGYTLTELSMQWVRQAPGKGLEWMGGFDPDDGETMYAEKFQGRLTVTEDTSTDTVYMELRSLTSEDTALYFCATSPGYDFFDYWGQGTLVTVSS
VL: SYVLTQPPSVSVAPGQTASITCVGTNFGSKNVHWYQQRPGQAPVLVVYDDSDRPSGIPERFSGSNSGNTATLTISRVEAGDEADYYCQVWDSSSDHLIFGGGTKLTVLG
notes: human IgG1; group 1
B9: anti-mutCALR antibody clone 7 (antibody, human IgG1, lambda, V domains shown)
VH: EVQLVQSGAEVKKPGASVKVSCKVSGYTLTELSMQWVRQAPGKGLEWMGGFDPDDGETMYAEKFQGRLTVTEDTSTDTVYMELRSLTSEDTALYFCATSPGYDFFDYWGQGTLVTVSS
VL: SYVLTQPPSVSVAPGQTASITCVGTNFGSKNVHWYQQRPGQAPVLVVYDDSDRPSGIPERFSGSNSGNTATLTINRVEAGDEADYYCQVWDSSNDLLIFGGGTKLTVLG
notes: human IgG1; group 1
B10: anti-mutCALR antibody clone 37 (antibody, human IgG1, lambda, V domains shown)
VH: QVQLVQSGAEVKKPGATVKISCKVSGYSFTDYFIHWVQQAPGKGLAWVGLVDPEDGETIYAEKFQGRVTITADTSTDTAYMELSSLRSEDTAVYYCATPGGILTDPDAFDIWGQGTMVTVSS
VL: QSALTQPASVSGSPGQSITISCTGTSSDVGGYNYVSWYQQHPGKAPKLMIYDVSNRPSGVSNRFSGSKSGNTASLTISGLQAEDEADYYCSSYTSSSTFYVFGTGTKVTVLG
notes: human IgG1; group 2
B11: anti-mutCALR antibody clone 35 (antibody, human IgG1, lambda, V domains shown)
VH: QVQLVQSGAEVKKPGATVKISCKVSGYSFTDYFIHWVQQAPGKGLAWVGLVDPEDGETIYAERFQGRVTITADTSTDTAYMELSSLRSEDTAVYYCATPGGILTDPDAFDIWGQGTMVTVSS
VL: QSALTQPASVSGSPGQSITISCTGTSSDVGGYNYVSWYQQHPGKAPKLMIYEVSNRPSGVSNRFSGSKSGNTASLTISGLQAEDEADYYCSSYTSSSTPYVFGTGTKVTVLG
notes: human IgG1; group 2
B12: anti-mutCALR antibody clone 36 (antibody, human IgG1, lambda, V domains shown)
VH: QVQLVQSGAEVKKPGATVKISCKVSGYSFTDYFIHWVQQAPGKGLAWVGLVDPEDGETIYAEKFQGRVTITADTSTDTAYMELSSLRSEDTAVYYCATPGGILTDPDAFDIWGQGTMVTVSS
VL: QSALTQPRSVSGSPGQSVTISCAGTGSDVGGYNYVSWYQHHPGKAPKLMIYDVNKRPSGVPDRFSGSKSGNTASLTISGLQAEDEADYYCSSYTSSSTFYVFGTGTKVTVLG
notes: human IgG1; group 2
B13: anti-mutCALR antibody clone 43 (antibody, human IgG1, lambda, V domains shown)
VH: EVQLVQSGAEVKKPGASVKVSCKASGGTFSSYAISWVRQAPGQGLEWMGGIIPIFGTANYAQKFQGRVTITADESTSTAYMELSSLRSEDTAVYYCASSPLRGSGWYWHYYYGMDVWGQGTTVTVSS
VL: not shown
notes: human IgG1
B14: anti-mutCALR antibody clone 49 (antibody, human IgG1, lambda, V domains shown)
VH: EVQLVQSGAEVKKPGSSVKVSCKASGGTFSSYAISWVRQAPGQGLEWMGGIIPIFGTANYAQKFQGRVTITADESTSTAYMELSSLRSEDTAVYYCASSPLRGSGWYWHYYYGMDVWGQGTTVTVSS
VL: SYELTQPPSVSVAPGKTARITCGGNNIRAKHVHWYQQKPGQSPVLVIYQDSKRPSGIPERFSGSNSGSTATLTISRVEAGDEADYYCQVWDSSTVVFGGGTKLTVLG
notes: human IgG1
B15: anti-mutCALR antibody clone 50 (antibody, human IgG1, lambda, V domains shown)
VH: QMQLVQSGAEVKKPGSSVKVSCKASGGTFSSYAISWVRQAPGQGLEWMGGIIPIFGTANYAQKFQGRVTITADESTSTAYMELSSLRSEDTAVYYCASSPLRGSGWYWHYYYGMDVWGQGTTVTVSS
VL: SYVLTQPPSVSVAPGKTARITCGGNNIGTKSVHWYQQKPGQSPVLVIYQDRKRPSGIPERFSGSNSGNTATLTISGTQAMDEADYYCQVWDSSTEVFGGGTKLTVLG
notes: human IgG1
B16: anti-mutCALR antibody clone 51 (antibody, human IgG1, lambda, V domains shown)
VH: EVQLVQSGAEVKKPGSSVKVSCKASGGTFSSYAISWVRQAPGQGLEWMGGIIPIFGTANYAQKFQGRVTITADESTSTAYMELSSLRSEDTAVYYCASSPLRGSGWYWHYYYGMDVWGQGTTVTVSS
VL: SYELTQPPSVSVAPGKTARITCGGNKIGTKSVHWYQQKPGQAPVLVIYQDSKRPSGIPERFSGSNSGNTATLTISGTQAMDEADYYCQAWGSSTVVFGGGTKLTVLG
notes: human IgG1
B17: anti-mutCALR antibody clone 45 (antibody, human IgG1, lambda, V domains shown)
VH: EVQLVQSGAEVKKPGSSVKVSCKASGGTFSSYAISWVRQAPGQGLEWMGGIIPIFGTANYAQKFQGRVTITADESTSTAYMELSSLRSEDTAVYYCASSPLRGSGWYWHYYYGMDVWGQGTTVTVSS
VL: SYVLTQPLSVSVAPGQTARITCGGNNIGRKSVHWYQQKPGQAPVLVIYRDSNRPSGIPERFSGSNSGNTATLTISRAQAGDEADYYCQVWDSSTVVFGGGTKLTVLG
notes: human IgG1

What was measured:
MBP protein = MBP protein (UniProt P0AEX9 27-392 = MBP); assay: SPR (Biacore 8K), antibody captured on anti-human IgG (Fc), MBP injected
Procedure: Experiment 1: Recombinant MBP-mutCALR Type 1 fusion protein was custom made at Cepter (cepterbiopartners.com). Data for the interaction of antibodies with recombinant MBP-mutCALR Type 1 fusion protein were collected at 25° C. on a Biacore 8K instrument (Cytiva, Marlborough, Mass.), and all reagents were obtained from Cytiva unless otherwise specified. The experiments were conducted using Tris-buffered saline (pH 7.2), 0.005% Surfactant P20, 1 mM CaCl₂) as running buffer. To prepare the capture surfaces, anti-human IgG (Fc) antibodies (Product #29234600) was amine-coupled onto a CM4 chip (Product #BR100534) under standard conditions using an Amine Coupling Kit (Product #BR100050). […] The kinetics parameters were obtained by applying 1:1 binding model to fit the data from multiple-cycle injection experiments using Biacore Insight Evaluation software.

[1] = target: T1, human mutCALR on BaF3 cells stably …; assay: flow cytometry, BaF3 MPL-mutCALR cells
Procedure: On the day of the assay, cells were washed and resuspended in assay buffer. Approximately 200,000 cells/well were added to 96-well plates and stained with the indicated concentration of antibodies for 30 minutes on ice. Cells were then washed and stained with goat anti-human secondary conjugated to R-phycoerythrin (R-PE) (Jackson Immuno Research Laboratories) for 30 minutes on ice. The cells were then washed and analyzed by flow cytometry.

[2] = target: T2, human Type 1 mutCALR on Ba/F3 cells …; assay: cell-based or functional assay

Row | Binder | binding result (MBP protein) | MPL-mutCALR AUC [1] | IC50, inhibition of pSTAT5 [2] | EC50 [1]
1 | B1 | no binding (tested: 250 nM) | – | – | –
2 | B2 | no binding (tested: 250 nM) | – | – | –
3 | B3 | no binding (tested: 250 nM) | – | – | –
4 | B4 | no binding (tested: 250 nM) | – | – | –
5 | B5 | no binding (tested: 250 nM) | – | – | –
6 | B6 | no binding (tested: 250 nM) | – | – | –
7 | B7 | no binding (tested: 250 nM) | – | – | –
8 | B8 | no binding (tested: 250 nM) | – | – | –
9 | B9 | no binding (tested: 250 nM) | – | – | –
10 | B10 | no binding (tested: 250 nM) | – | – | –
11 | B11 | no binding (tested: 250 nM) | – | – | –
12 | B12 | no binding (tested: 250 nM) | – | – | –
13 | B13 | – | 27900 | 6.9 µg/mL | –
14 | B14 | – | 36400 | 9.3 µg/mL | 0.89 µg/mL
15 | B15 | – | 36700 | 28 µg/mL | 0.8 µg/mL
16 | B16 | – | 37300 | 14 µg/mL | 1.15 µg/mL
17 | B17 | – | 29800 | 13 µg/mL | –
